{
  "source": "paper PMC4512722",
  "key": {"[1]": {"biological_target": "tomato pectin methylesterase PME1 (tomato) (UniProt P14280)", "sequence (P14280 230-546)": "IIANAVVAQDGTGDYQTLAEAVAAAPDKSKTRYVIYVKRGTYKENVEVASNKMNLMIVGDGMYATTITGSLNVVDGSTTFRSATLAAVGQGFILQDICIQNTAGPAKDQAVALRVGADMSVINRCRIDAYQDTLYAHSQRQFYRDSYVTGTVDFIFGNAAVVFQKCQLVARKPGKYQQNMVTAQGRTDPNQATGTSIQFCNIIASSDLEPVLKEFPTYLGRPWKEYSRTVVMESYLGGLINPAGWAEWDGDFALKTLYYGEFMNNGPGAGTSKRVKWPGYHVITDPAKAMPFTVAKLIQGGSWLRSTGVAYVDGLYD", "assay": "SPR; tomato PME1 immobilised by amine coupling on a COOH5 chip (SensiQ Pioneer), VvPMEI1 injected at 2.3-300 nM, 25°C, 10 mM HEPES pH 7.5, 0.1 M NaCl, 0.005% Tween-20; 1:1 interaction model"}, "[2]": {"biological_target": "tomato pectin methylesterase PME1 (tomato) (UniProt P14280)"}, "[3]": {"biological_target": "tomato pectin methylesterase PME1 (tomato) (UniProt P14280)", "assay": "SPR; tomato PME1 immobilised by amine coupling on a COOH5 chip (SensiQ Pioneer), VvPMEI1 injected at 2.3-300 nM, 25°C, 10 mM NaOAc pH 5.5, 0.1 M NaCl, 0.005% Tween-20; 1:1 interaction model"}},
  "note": "pKd: −log10 of the molar value.",
  "data": [
    {"substance": "VvPMEI1, pectin methylesterase inhibitor of Vitis vinifera (recombinant) (natural protein)", "values": [
      {"measurement": "pKd", "setting": "[1]", "value": 7.46},
      {"measurement": "koff", "setting": "[1]", "value": 0.026, "unit": "s⁻¹"},
      {"measurement": "inhibitory activity (%) at pH 6.5, inhibition at pH 5.5 taken as 100%", "setting": "[2]", "value": 100, "unit": "%"},
      {"measurement": "inhibitory activity (%) at pH 7.5, inhibition at pH 5.5 taken as 100%", "setting": "[2]", "value": 84, "unit": "%"},
      {"measurement": "pKd", "setting": "[3]", "value": 8.32},
      {"measurement": "koff", "setting": "[3]", "value": 0.00317, "unit": "s⁻¹"}
    ]}
  ]
}
